Patent US20260265389A1 (CANTAI THERAPEUTICS, published 2026)

Columns and labels:
[1] = target: T1, IL-23 heterodimer (IL-23α & IL-12β) (Homo sapiens (Human), UniProt Q9NPF7 20-189; P29460 23-328); assay: BLI (Octet); how IL-23 was offered is not described
T1 construct: also called heteromeric IL-23
T1 sequence 1: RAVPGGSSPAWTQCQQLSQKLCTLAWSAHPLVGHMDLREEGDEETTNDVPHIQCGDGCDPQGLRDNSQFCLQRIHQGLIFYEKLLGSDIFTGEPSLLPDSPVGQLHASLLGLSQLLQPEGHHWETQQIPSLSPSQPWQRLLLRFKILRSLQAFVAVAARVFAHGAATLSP
T1 sequence 2: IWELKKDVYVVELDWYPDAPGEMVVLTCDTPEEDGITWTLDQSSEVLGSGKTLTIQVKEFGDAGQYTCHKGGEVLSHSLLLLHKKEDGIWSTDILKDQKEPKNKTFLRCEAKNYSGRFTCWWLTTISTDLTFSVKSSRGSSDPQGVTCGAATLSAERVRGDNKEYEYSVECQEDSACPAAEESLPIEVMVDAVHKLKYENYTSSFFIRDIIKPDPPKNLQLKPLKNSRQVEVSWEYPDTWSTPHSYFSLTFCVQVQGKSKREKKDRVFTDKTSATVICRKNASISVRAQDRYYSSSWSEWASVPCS

[2] = target: T2, biotinylated recombinant human TL1A (human, UniProt O95150 72-251, limits assumed, biotinylated (site not stated)); assay: BLI (Octet); by Example 12 biotinylated recombinant human TL1A on streptavidin sensors, dipped into the bispecific antibody for 0-300 s; the sheet does not name the loaded protein or the antibody concentration
T2 sequence: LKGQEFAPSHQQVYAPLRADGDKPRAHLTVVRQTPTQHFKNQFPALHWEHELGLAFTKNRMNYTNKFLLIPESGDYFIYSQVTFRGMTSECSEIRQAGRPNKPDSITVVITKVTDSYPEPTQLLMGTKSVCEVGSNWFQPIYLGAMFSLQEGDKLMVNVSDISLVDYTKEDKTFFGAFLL
Protocol: Kinetic determination and assessment of pH dependency was performed on Octet BLI platform. Briefly, knob-in-hole bispecific antibodies that were prepared according to method described in Example 10 were used for this assay. Briefly, biotinylated recombinant human TL1A was diluted to 7.5 nM in kinetics buffer (1×PBS pH 7.4, 0.1% BSA, 0.05% Tween20, 0.05% sodium azide) and loaded onto streptavidin sensors for a period of 5 minutes. Sensors were then baselined in kinetics buffer before being dipped into bispecific antibodies diluted to varying concentrations, with two-fold serial dilutions for a 5-minute association step, followed by a 15-minute dissociation step. Top concentrations were determined based on approximate KD determined during a scouting experiment. Referencing was performed using a loaded sensor that was dipped into buffer as opposed to antibody, as well as unloaded sensors dipped into antibody. Then, data was aligned and fitted.

monomeric TL1A = target: T3, monomeric TL1A (human, UniProt O95150 72-251, limits assumed); assay: SPR, antibody captured by anti-human IgG-Fc, TL1A monomer as analyte, pH 7.4; pH 7.4, monomeric TL1A as analyte
T3 construct: also called TL1A monomer
T3 sequence: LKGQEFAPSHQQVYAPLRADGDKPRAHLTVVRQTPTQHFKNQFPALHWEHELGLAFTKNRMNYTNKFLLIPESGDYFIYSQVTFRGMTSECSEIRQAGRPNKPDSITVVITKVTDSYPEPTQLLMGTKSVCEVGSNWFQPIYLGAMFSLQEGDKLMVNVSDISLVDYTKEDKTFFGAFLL
Protocol: Binding kinetic assays were performed for determining pH dependent binding activity of a lead TL1A binding antibody candidate, as identified in Example 3, and 7 different variants thereof using surface plasma resonance (SPR) spectroscopy. Each TL1A binding candidate comprised a VH sequence that comprised at least one modification in CDR or framework region of variable region of the VH sequence. Briefly, an amine-coupled anti-human IgG-Fc specific polyclonal antibody was immobilized on a SPR sensor chip. All TL1A binding antibody candidates were expressed at 1 mL scale in chinese hamster ovary (CHO) cells for 6 days, and supernatant was cleared of cells by centrifugation. To form a captured antibody array, TL1A binding antibody candidates were batch diluted to approximately 1.7-13.3 nM (either after Protein A purification or directly from CHO supernatant) and injected onto the chip. Non-regenerative kinetics were measured by injecting TL1A monomer starting at a concentration of 2.57E-10 M, with 6-fold increase in concentration up to 3.33E-07 M at pH 7.4 and 5.8, respectively. Likewise, non-regenerative kinetics were also measured for TL1A trimer starting at a concentration of 2.57E-10 M, with 6-fold increase in concentration up to 3.33E-07 M at pH 7.4. Each analyte injection flowed over the array at […] for a 5-minute association phase, followed by a 10-minute buffer dissociation phase. Binding was detected and relative capture response units (RU) were collected for each antibody on the surface.

| Binder | binding result [1] | binding result [2] | Kd (monomeric TL1A) [nM] |
| --- | --- | --- | --- |
| bispecific antibody candidate II-1 (bispecific antibody, IgG1, V domains shown, hIgG1, 1:1 knob-in-hole; also called 11-1; knob-in-hole bispecific antibody) VH 1: QVQLVQSGAEVKKPGSSVKVSCKASGGTFTIYAISWVRQAPGQGLEWMGGILPIFGTGHYVQKFQGRVTITADESTSTSYMELSSLRSEDTAVYYCAREPENWGQGTLVTVSS VH 2: QVQLQESGPGLVEPSGTLSLTCAVSGGSISSRNWWSWVRQPPGKGLEWIGEIYHSGSTNYNPSLKSRVTISVDKSKNQFSLNLNSVTAADTAVYYCARDNDILTGYFDGYFDYWGQGTLVTVSS VL: not shown | binds | binds | – |
| bispecific antibody candidate II-2 (bispecific antibody, IgG1, V domains shown, hIgG1, 1:1 knob-in-hole; also called 11-2; knob-in-hole bispecific antibody) VH 1: QVQLVQSGAEVKKPGASVKVSCTASGDAFTGDSIHWVRQAPGQGLEWMGWITPNSGGTSYAQRFQGRVTLTRDTSISTVYMDLRRLRSDDTAVYFCASGLTVPFDYWGQGTLVTVSS VH 2: QVQLQESGPGLVEPSGTLSLTCAVSGGSISSRNWWSWVRQPPGKGLEWIGEIYHSGSTNYNPSLKSRVTISVDKSKNQFSLNLNSVTAADTAVYYCARDNDILTGYFDGYFDYWGQGTLVTVSS VL: not shown | binds | binds | – |
| TL1A binding antibody candidate 2 of TABLE 47 (VH SEQ ID NO: 903, VL SEQ ID NO: 1768) (antibody, V domains shown, It was expressed in CHO cells and captured by an anti-human IgG-Fc antibody (human IgG Fc)) VH: QVQLQESGPGLVKPSGTLSLTCAVSGGSISSRNWWSWVRQPPGKGLEWIGEIYHSGSTNYNPSLKSRVTISVDKSKNQFSLNLNSVTAADTAVYYCARDNDILDGYFDGYFDYWGQGTLVTVSS VL: not shown | – | – | 5.53 |
| TL1A binding antibody candidate 6 of TABLE 47 (VH SEQ ID NO: 908, VL SEQ ID NO: 1768) (antibody, V domains shown, It was expressed in CHO cells and captured by an anti-human IgG-Fc antibody (human IgG Fc)) VH: QVQLQESGPGLVKPSGTLSLTCAVSGGSISSRNWWSWVRQPPGKGLEWIGEIYHSGSTNYNPSLKSRVTISVDKSKNQFSLNVNSVTAADTAVYYCARDNDILTGYFDGYFDYWGQGTLVTVSS VL: not shown | – | – | 3.05 |
| TL1A binding antibody candidate 1 of TABLE 47 (VH SEQ ID NO: 902, VL SEQ ID NO: 1768) (antibody, V domains shown, It was expressed in CHO cells and captured by an anti-human IgG-Fc antibody (human IgG Fc)) VH: QVQLQESGPGLVKPSGTLSLTCAVSGGSISSRNWWSWVRQPPGKGLEWIGEIYHSGSTNYNPSLKSRVIISVDKSKNQFSLNLNSVTAADTAVYYCARDNDILTGYFDGYFDYWGQGTLVTVSS VL: not shown | – | – | 6.46 |
| TL1A binding antibody candidate 7 of TABLE 47 (VH SEQ ID NO: 909, VL SEQ ID NO: 1768) (antibody, V domains shown, It was expressed in CHO cells and captured by an anti-human IgG-Fc antibody (human IgG Fc)) VH: QVQLQESGPGLVKPSGTLSLTCAVSGGSISSRNWWSWVRQPPGKGLEWIGEIYHSGSTNYNPSLKSRVTISVDKSKNQFSLNLKSVTAADTAVYYCARDNDILTGYFDGYFDYWGQGTLVTVSS VL: not shown | – | – | 4.57 |
| TL1A binding antibody candidate 8 of TABLE 47 (VH SEQ ID NO: 933, VL SEQ ID NO: 1768) (antibody, V domains shown, It was expressed in CHO cells and captured by an anti-human IgG-Fc antibody (human IgG Fc)) VH: QVQLQESGPGLVEPSGTLSLTCAVSGGSISSRNWWSWVRQPPGKGLEWIGEIYHSGSTNYNPSLKSRVTISVDKSKNQFSLNLNSVTAADTAVYYCARDNDILTGYFDGYFDYWGQGTLVTVSS VL: not shown | – | – | 9.66 |
| TL1A binding antibody candidate 5 of TABLE 47 (VH SEQ ID NO: 907, VL SEQ ID NO: 1768) (antibody, V domains shown, It was expressed in CHO cells and captured by an anti-human IgG-Fc antibody (human IgG Fc)) VH: QVQLQESGPGLVKPSGTLSLTCAVSGGSITSRNWWSWVRQPPGKGLEWIGEIYHSGSTNYNPSLKSRVTISVDKSKNQFSLNLNSVTAADTAVYYCARDNDILTGYFDGYFDYWGQGTLVTVSS VL: not shown | – | – | 5.19 |
